The values below come from PMC3285515.

The assay has as its target HSV-1 glycoprotein D (gD), wild type, on KOS/tk12 virions (HSV-1 (strain KOS)) (UniProt A1Z0Q5).
Chain of UniProt A1Z0Q5 (A1Z0Q5 26-394): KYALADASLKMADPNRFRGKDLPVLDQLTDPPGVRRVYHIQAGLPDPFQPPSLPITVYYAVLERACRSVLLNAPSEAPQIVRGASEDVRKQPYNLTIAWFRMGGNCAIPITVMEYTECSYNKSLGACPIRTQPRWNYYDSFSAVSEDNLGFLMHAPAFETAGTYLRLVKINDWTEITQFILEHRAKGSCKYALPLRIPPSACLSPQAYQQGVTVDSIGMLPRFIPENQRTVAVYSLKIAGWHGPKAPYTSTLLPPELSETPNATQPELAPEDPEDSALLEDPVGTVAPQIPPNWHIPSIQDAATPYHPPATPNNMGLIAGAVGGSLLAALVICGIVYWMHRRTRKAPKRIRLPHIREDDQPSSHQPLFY

“sHA102, soluble HVEM (HveA) protein containing the first two cysteine-rich pseudorepeats (N-terminal 102 amino acids of HVEM) (domain or fragment)” displayed a sHA102-mediated KOS/tk12 infection of receptor-deficient CHO-K1 cells; sHA102 0-1,000 nM, MOI 3 and 9; ONPG assay and X-gal staining (percent of cells infected) (% of the cells infected) of 90 to 100.
